Measurements: patent US20220204613A1 (D 10 THERAPEUTICS, published 2022)

B1: 32G8H6 (antibody, V domains shown)
VH: EVQLQQSGPELVKPGASVKLSCKASGYTFTSSVIHWVKQKPGQGLEWLGYINPYSDGTKFNEKCKIKATLTSDKSSSTAYMELSSLTSEDSAVYYCARGLIGTRYDSWFAYWGQGTLVTVSA
VL: DIQMTQNGSSLSASLGDRVTISCRTSQDINNYLNWYQQKQDGTVKLLIYYTSRLHSGVPSRFSGSGSGTDYSLTIRNLEQEDIATYFCQQGNTLPYTFGGGTKLEIK
notes: Mouse hybridoma antibody; also called parent mAb (32G8H6); 32G8H6 (mAb)
B2: chimeric-VH+VL-1 (antibody, human IgG4, V domains shown)
VH: B1 VH
VL: B1 VL
notes: also called chimeric antibody
B3: chimeric-VH+VL2 (antibody, human IgG4, V domains shown)
VH: B1 VH
VL: DIQMNQSPSSLSASLGDTITITCHASQNINVWLSWYQQKPGNIPKLLIYKASNLHTGVPSRFSGSGSGTGFTLTISSLQPEDIATYYCQQGQSYPLTFGAGTKLELK

Key:
[1] = biological target: T1, human CD47 protein (human, UniProt Q08722 19-139, limits assumed); experiment: ELISA on human CD47 protein, antibody 2.06E-02 ug/ml
T1 construct: also called human CD47 antigen
T1 sequence (Q08722 19-139 limits assumed): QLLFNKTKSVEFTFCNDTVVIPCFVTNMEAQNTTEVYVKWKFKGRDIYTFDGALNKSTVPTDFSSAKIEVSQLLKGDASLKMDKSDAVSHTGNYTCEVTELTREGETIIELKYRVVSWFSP

[2] = biological target: T1, human CD47 protein; experiment: ELISA on human CD47 protein, antibody 1.67E+00 ug/ml
[3] = biological target: T1, human CD47 protein; experiment: ELISA on human CD47 protein, antibody 6.17E-02 ug/ml
[4] = biological target: T1, human CD47 protein; experiment: ELISA on human CD47 protein, antibody 2.29E-03 ug/ml
[5] = biological target: T1, human CD47 protein; experiment: ELISA on human CD47 protein, antibody 7.62E-04 ug/ml
[6] = biological target: T1, human CD47 protein; experiment: ELISA on human CD47 protein, antibody 15 ug/ml
[7] = biological target: T1, human CD47 protein; experiment: ELISA on human CD47 protein, antibody 5.00E+00 ug/ml
[8] = biological target: T1, human CD47 protein; experiment: ELISA on human CD47 protein, antibody 6.86E-03 ug/ml
[9] = biological target: T1, human CD47 protein; experiment: ELISA on human CD47 protein, antibody 45 ug/ml
[10] = biological target: T1, human CD47 protein; experiment: ELISA on human CD47 protein, OD450nm against log Ab conc; EC50 row of the table drawn under the plot; fit of the flat control curve
[11] = biological target: T1, human CD47 protein; experiment: ELISA on human CD47 protein, antibody 1.85E-01 ug/ml
[12] = biological target: T1, human CD47 protein; experiment: ELISA on human CD47 protein, antibody 5.56E-01 ug/ml
[13] = biological target: T1, human CD47 protein; experiment: ELISA on human CD47 protein, antibody 0 ug/ml (blank)
[14] = biological target: T1, human CD47 protein; experiment: ELISA on human CD47 protein, OD450nm against log Ab conc; EC50 row of the table drawn under the plot; the curve has no lower plateau in the range shown
[15] = biological target: T1, human CD47 protein; experiment: SPR Biacore, supernatant antibody Fc-captured, human CD47 analyte 5 nM
Procedure: Production and affinity ranking of humanized antibodies. The designed plasmids of heavy chain and light chain were sent for 3 mL transfection following GenScript's SOP. For affinity ranking, Antibodies were captured on the sensor chip through Fc capture method. Human CD47 protein was used as the analyte. The surface was regenerated before the injection of another antibody. The process was repeated until all antibodies were analyzed. The off-rates of antibodies were obtained from fitting the experimental data locally to 1:1 interaction model using the Biacore® T200/8K evaluation software. The antibodies were ranked by their dissociation rate constants (off-rates, kd).

[16] = biological target: T1, human CD47 protein; experiment: SPR Biacore, purified IgG Fc-captured, human CD47 analyte 0.3125-10 nM
From the text: Affinity measurement of purified humanized IgGs. The affinity of purified antibody binding to human CD47 was individually determined using a Surface Plasmon Resonance (SPR) biosensor, Biacore® T200/8K (GE Healthcare). Antibodies were captured on the sensor chip through Fc capture method. Human CD47 protein was used as the analyte. The data of dissociation (kd) and association (ka) rate constants were obtained using Biacore T200/8K evaluation software. The equilibrium dissociation constants (KD) were calculated from the ratio of kd over ka.

Row | Molecule | ELISA signal [1] | ELISA signal [2] | ELISA signal [3] | ELISA signal [4] | ELISA signal [5] | ELISA signal [6] | ELISA signal [7] | ELISA signal [8] | ELISA signal [9] | EC50 [10] [ng/mL] | ELISA signal [11] | ELISA signal [12] | ELISA signal [13] | EC50 [14] [ng/mL] | Kd [15] [nM] | koff [15] [s⁻¹] | kon [15] [M⁻¹ s⁻¹] | Kd [16] [nM] | koff [16] [s⁻¹] | kon [16] [M⁻¹ s⁻¹]
1 | Isotype control (antibody) | 0.48 | 0.454 | 0.445 | 0.287 | 0.211 | 0.49 | 0.562 | 0.387 | 0.543 | 3.42 | 0.551 | 0.553 | – | – | – | – | – | – | – | –
2 | B1 | 3.33 | 3.71 | 3.73 | 2.68 | 2.32 | 3.87 | 3.78 | 2.98 | 3.83 | – | 3.81 | 3.8 | 0.086 | 6.55 | – | – | – | – | – | –
3 | B2 | 2.9 | 3.32 | 3.19 | 2.4 | 1.71 | 3.39 | 3.48 | 2.64 | 3.48 | – | 3.34 | 3.32 | 0.162 | – | 0.34 | 0.00261 | 7.69e+06 | 0.482 | 0.00255 | 5.3e+06
4 | B3 | 0.342 | 0.663 | 0.435 | 0.276 | 0.255 | 1.39 | 0.918 | 0.44 | 1.95 | – | 0.475 | 0.56 | 0.251 | – | – | – | – | – | – | –
